Patent publication US20160251440A1 (Ablynx, published 2016)

T1: human IL-23R extracellular domain Fc-fusion (human, UniProt Q5VWK5 24-355)
T1 construct: extracellular domain; bought; also called IL-23R-Fc
T1 sequence (looked up): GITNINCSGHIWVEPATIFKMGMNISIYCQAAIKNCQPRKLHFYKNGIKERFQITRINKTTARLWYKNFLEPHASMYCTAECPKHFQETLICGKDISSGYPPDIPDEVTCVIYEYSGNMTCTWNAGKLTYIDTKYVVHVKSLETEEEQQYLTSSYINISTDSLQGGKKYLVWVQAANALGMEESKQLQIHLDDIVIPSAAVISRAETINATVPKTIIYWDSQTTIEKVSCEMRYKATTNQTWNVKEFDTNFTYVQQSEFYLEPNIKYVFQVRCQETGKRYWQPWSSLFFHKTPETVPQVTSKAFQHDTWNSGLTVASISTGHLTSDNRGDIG

T2: human IL12Rβ2 extracellular domain Fc-fusion (human, UniProt Q99665 24-622)
T2 construct: extracellular domain; bought; also called IL12Rβ2-Fc; hIL-12Rβ2-Fc
T2 sequence (looked up): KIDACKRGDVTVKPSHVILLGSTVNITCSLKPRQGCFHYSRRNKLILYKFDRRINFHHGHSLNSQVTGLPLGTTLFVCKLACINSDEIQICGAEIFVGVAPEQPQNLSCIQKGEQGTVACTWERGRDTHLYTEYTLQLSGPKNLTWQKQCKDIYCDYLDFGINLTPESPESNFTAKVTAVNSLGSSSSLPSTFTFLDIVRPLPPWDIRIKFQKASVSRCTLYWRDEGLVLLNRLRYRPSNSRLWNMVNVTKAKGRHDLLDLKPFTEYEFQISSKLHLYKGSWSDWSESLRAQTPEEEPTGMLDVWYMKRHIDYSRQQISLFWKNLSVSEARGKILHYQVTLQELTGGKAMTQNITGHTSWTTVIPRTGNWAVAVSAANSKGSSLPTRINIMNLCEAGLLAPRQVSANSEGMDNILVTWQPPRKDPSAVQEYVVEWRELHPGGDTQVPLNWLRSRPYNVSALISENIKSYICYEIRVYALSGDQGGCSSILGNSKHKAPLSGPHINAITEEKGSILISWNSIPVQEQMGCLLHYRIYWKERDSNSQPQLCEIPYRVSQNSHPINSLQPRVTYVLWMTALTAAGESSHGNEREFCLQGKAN

T3: human IL12Rβ2, cell-expressed (human, UniProt Q99665 24-862)
T3 sequence (looked up): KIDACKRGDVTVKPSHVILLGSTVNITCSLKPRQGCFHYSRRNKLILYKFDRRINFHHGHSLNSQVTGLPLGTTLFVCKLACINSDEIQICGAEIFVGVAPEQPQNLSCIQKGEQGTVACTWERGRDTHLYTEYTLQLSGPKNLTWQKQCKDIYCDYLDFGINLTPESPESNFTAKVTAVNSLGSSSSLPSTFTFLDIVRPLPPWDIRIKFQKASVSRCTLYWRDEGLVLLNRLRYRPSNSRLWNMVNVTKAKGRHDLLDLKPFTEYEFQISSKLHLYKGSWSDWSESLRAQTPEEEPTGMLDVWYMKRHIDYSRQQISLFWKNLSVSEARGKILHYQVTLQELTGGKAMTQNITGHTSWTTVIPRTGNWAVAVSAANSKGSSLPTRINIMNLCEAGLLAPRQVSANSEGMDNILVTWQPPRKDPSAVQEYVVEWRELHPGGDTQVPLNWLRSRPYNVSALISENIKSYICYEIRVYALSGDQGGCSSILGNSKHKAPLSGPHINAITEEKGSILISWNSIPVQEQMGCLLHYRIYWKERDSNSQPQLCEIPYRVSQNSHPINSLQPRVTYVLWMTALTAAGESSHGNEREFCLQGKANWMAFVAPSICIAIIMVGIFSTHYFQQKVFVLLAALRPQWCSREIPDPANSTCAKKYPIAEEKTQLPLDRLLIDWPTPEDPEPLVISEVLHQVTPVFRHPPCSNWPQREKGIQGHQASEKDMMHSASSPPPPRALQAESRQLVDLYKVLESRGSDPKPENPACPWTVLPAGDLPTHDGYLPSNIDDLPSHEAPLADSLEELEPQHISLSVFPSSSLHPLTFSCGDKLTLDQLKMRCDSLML


Legend:
[1] = molecular target: T1, human IL-23R extracellular domain …; experiment: competition ELISA, coated IL-23 + IL-23R-Fc
[2] = molecular target: T1, human IL-23R extracellular domain …; experiment: competition ELISA, coated IL-23 + 5 nM IL-23R-Fc
[3] = molecular target: T4, human CD4, cell-expressed (human, UniProt P01730 26-458); experiment: flow cytometry on MOLM-13 cells (CD4, no IL12R or IL23R), upper right panel
T4 construct: whole, on cells

[4] = molecular target: T1, human IL-23R extracellular domain …; experiment: SPR Biacore T100, captured IL-23R-Fc
[5] = molecular target: T4, human CD4, cell-expressed; experiment: flow cytometry on activated T cells of donor D838 (very high CD4), lower left panel
[6] = molecular target: T1, human IL-23R extracellular domain …; experiment: competition ELISA, ratio to monovalent IL23R#19
[7] = molecular target: T5, human IL12Rβ1, cell-expressed (human, UniProt P42701 24-662); experiment: flow cytometry on isolated CD8+ T cells of donor D863, anti-Flag detection
T5 construct: whole, on cells; in the context of the heterodimeric receptor; also called IL12Rb1

[8] = molecular target: T4, human CD4, cell-expressed; experiment: flow cytometry on activated T cells of donor D838 (very high CD4, moderate IL12R), upper left panel
[9] = molecular target: T2, human IL12Rβ2 extracellular domain …; experiment: competition ELISA, coated IL-12 + IL12Rβ2-Fc
[10] = molecular target: T3, human IL12Rβ2, cell-expressed; experiment: cell-based or functional assay
[11] = molecular target: T4, human CD4, cell-expressed; experiment: flow cytometry on MOLM-13 cells (CD4, no IL12R or IL23R), upper left panel
[12] = molecular target: T2, human IL12Rβ2 extracellular domain …; experiment: competition ELISA, ratio to monovalent IL12Rb2#1
[13] = molecular target: T2, human IL12Rβ2 extracellular domain …; experiment: competition ELISA, ratio to monovalent IL12Rb2#2

Binder | IC50 [1] [nM] | IC50 [2] [nM] | binding result [3] | Kd [4] [nM] | koff [4] [s⁻¹] | kon [4] [M⁻¹ s⁻¹] | EC50 (read off the curve) [3] [nM] | EC50 (read off the curve) [5] [nM] | fold ctrl [6] [fold] | binding result [7] | EC50 (read off the curve) [8] [nM] | IC50 [9] [nM] | IC50, IFNγ release, PBMC D840 [10] [nM] | IC50, IFNγ release, T cells D839 [10] [nM] | fold ctrl, IFNγ release, PBMC D840 [10] [fold] | fold ctrl, IFNγ release, T cells D839 [10] [fold] | EC50 (read off the curve) [11] [nM] | fold ctrl [12] [fold] | fold ctrl [13] [fold]
IL23R#20: 150H07 (VHH, bispecifics print NAKNTVY where this entry prints NAKNIVY; also called LG150H07) VHH: EVQLVESGGGLVQAGGSLRLSCAASGRTFSSYAMGWFRQAPGKDREFVAAISWIGESTYYADSVKGRFTISRDNAKNTVYLRMNSLKPEDTAVYYCAADLYYTAYVAAADEYDYWGQGTLVTVSS | 16 | 16 | no binding (tested: 1E-6 M) | 78 | 0.23 | 3e+06 |  |  |  |  |  |  |  |  |  |  |  |  | 
IL23R#19-35GS-CD4#8 (bispecific antibody, also called BI#42; T023200042) EVQLVESGGGLVQPGGSLTLSCVASGRTFSTDVMGWFRQAPGKEREFVAAHRTSGISTVYAASVKGRFTISRDNAKNTVYLGMKSLKPEDTAVYVCAAGSDASGGYDYWGQGTLVTVSSGGGGSGGGGSGGGGSGGGGSGGGGSGGGGSGGGGSEVQLVESGGGSVQPGGSLTLSCGTSGRTFNVMGWFRQAPGKEREFVAAVRWSSTGIYYTQYADSVKSRFTISRDNAKNTVYLEMNSLKPEDTAVYYCAADTYNSNPARWDGYDFRGQGTLVTVSS | 6.1 |  |  |  |  |  | ~4 | ~1 | 0.3 | no binding (tested: 250 nM) |  |  |  |  |  |  |  |  | 
CD4#8-35GS-IL12Rb2#1 (bispecific antibody, defined by its make-up) EVQLVESGGGSVQPGGSLTLSCGTSGRTFNVMGWFRQAPGKEREFVAAVRWSSTGIYYTQYADSVKSRFTISRDNAKNTVYLEMNSLKPEDTAVYYCAADTYNSNPARWDGYDFRGQGTLVTVSSGGGGSGGGGSGGGGSGGGGSGGGGSGGGGSGGGGSEVQLVESGGRLVQAGDSLRLSCAASGRTFISYRMGWFRQAPGKEREFVAALRWSSSNIDYTYYADSVKGRFSISGDYAKNTVYLQMNSLKAEDTAVYYCAASTRWGVMESDTEYTSWGQGTLVTVSS |  |  |  |  |  |  |  |  |  |  | ~1 | 10 | 1.9 | 0.78 | 8 | 74 | ~1 | 0.4 | 
CD4#8-35GS-IL12Rb2#2 (bispecific antibody, defined by its make-up) EVQLVESGGGSVQPGGSLTLSCGTSGRTFNVMGWFRQAPGKEREFVAAVRWSSTGIYYTQYADSVKSRFTISRDNAKNTVYLEMNSLKPEDTAVYYCAADTYNSNPARWDGYDFRGQGTLVTVSSGGGGSGGGGSGGGGSGGGGSGGGGSGGGGSGGGGSEVQLVESGGRLVQAGDSLRLSCAASGRTFTSYRMGWFRQAPGKEREFVSALRWSSGNIDYTYYADSVKGRFSISGDYAKNTVYLQMNSLKAEDTAVYYCAASTRWGVMESDTEYTSWGQGTLVTVSS |  |  |  |  |  |  |  |  |  |  | ~1 | 25 | 2.1 | 0.76 | 8 | 130 | ~1 |  | 0.6
IL12Rb2#1-35GS-CD4#8 (bispecific antibody, defined by its make-up (Nb1-Nb2)) EVQLVESGGRLVQAGDSLRLSCAASGRTFISYRMGWFRQAPGKEREFVAALRWSSSNIDYTYYADSVKGRFSISGDYAKNTVYLQMNSLKAEDTAVYYCAASTRWGVMESDTEYTSWGQGTLVTVSSGGGGSGGGGSGGGGSGGGGSGGGGSGGGGSGGGGSEVQLVESGGGSVQPGGSLTLSCGTSGRTFNVMGWFRQAPGKEREFVAAVRWSSTGIYYTQYADSVKSRFTISRDNAKNTVYLEMNSLKPEDTAVYYCAADTYNSNPARWDGYDFRGQGTLVTVSS |  |  |  |  |  |  |  |  |  | no binding (tested: 250 nM) | ~1 | 4.8 | 1.1 | 0.11 | 11 | 400 | ~1 | 0.9 | 
IL12Rb2#2-35GS-CD4#8 (bispecific antibody, defined by its make-up) EVQLVESGGRLVQAGDSLRLSCAASGRTFTSYRMGWFRQAPGKEREFVSALRWSSGNIDYTYYADSVKGRFSISGDYAKNTVYLQMNSLKAEDTAVYYCAASTRWGVMESDTEYTSWGQGTLVTVSSGGGGSGGGGSGGGGSGGGGSGGGGSGGGGSGGGGSEVQLVESGGGSVQPGGSLTLSCGTSGRTFNVMGWFRQAPGKEREFVAAVRWSSTGIYYTQYADSVKSRFTISRDNAKNTVYLEMNSLKPEDTAVYYCAADTYNSNPARWDGYDFRGQGTLVTVSS |  |  |  |  |  |  |  |  |  |  | ~1 | 11 | 1.6 | 0.031 | 30 | 1130 | ~1 |  | 1.4
